T1: human tissue factor pathway inhibitor (TFPI) (human, UniProt P10646 29-282, limits assumed)
T1 construct: also called Human TFPI
T1 sequence (looked up): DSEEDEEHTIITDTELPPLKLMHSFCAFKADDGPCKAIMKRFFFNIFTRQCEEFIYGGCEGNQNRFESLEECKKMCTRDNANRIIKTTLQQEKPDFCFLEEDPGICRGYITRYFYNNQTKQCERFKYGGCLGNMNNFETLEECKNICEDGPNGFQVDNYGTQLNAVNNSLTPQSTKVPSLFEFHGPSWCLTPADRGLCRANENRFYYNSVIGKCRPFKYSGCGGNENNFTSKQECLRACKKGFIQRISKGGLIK


Columns and labels:
[1] = target: T1, human tissue factor pathway inhibitor …; assay: SPR (Biacore) kinetics, human TFPI immobilised; reference gA200
Experimental: (§1) Human TFPI was immobilized on CM4 or CM5 chip using amine coupling kit based on manufacturer's instruction. Anti-TFPI pro-drug antibodies or parental anti-TFPI antibody were flowed through the system with 10 μg/mL antibody with or without 15 μg/mL human serum albumin (HSA). The binding level was measure at 2 seconds after completion of each injection. In kinetics assay, antibodies with a series of concentrations were injected, followed by 30-minute dissociation time. The dissociation and association rate of the antibodies were modeled using BiaEvaluation software.

[2] = target: T1, human tissue factor pathway inhibitor …; assay: SPR (Biacore) kinetics, human TFPI immobilised; antibody with HSA; reference gA200
Experimental: as §1

[3] = target: T1, human tissue factor pathway inhibitor …; assay: SPR (Biacore), TFPI; antibody alone (reference)
[4] = target: T1, human tissue factor pathway inhibitor …; assay: SPR (Biacore) kinetics, human TFPI immobilised
Experimental: as §1

[5] = target: T1, human tissue factor pathway inhibitor …; assay: SPR (Biacore), TFPI; with HSA against antibody alone
[6] = target: T1, human tissue factor pathway inhibitor …; assay: SPR (Biacore), TFPI; with monkey serum albumin against antibody alone
[7] = target: T1, human tissue factor pathway inhibitor …; assay: SPR (Biacore) kinetics, human TFPI immobilised; antibody with HSA
Experimental: as §1

Binder | Affinity decrease (fold) [1] [fold] | Affinity decrease (fold) [2] [fold] | Affinity decrease (fold) [3] [fold] | Kd [4] [nM] | Affinity decrease (fold) [5] [fold] | Affinity decrease (fold) [6] [fold] | Kd [7] [nM]
gA200 (antibody, human IgG2, lambda, V domains shown, Fc N-glycan, Human anti-TFPI IgG from human antibody libraries, optimised; no masking domain; also called parental anti-TFPI antibody gA200; unmodified anti-TFPI antibody) VH: EVQLVESGGGLVQPGGSLRLSCAASGFTFSSYGMDWVRQAPGKGLEWVSSIRGSRGSTYYADSVKGRFTISRDNSKNTLYLQMNSLRAEDTAVYYCARLYRYWFDYWGQGTLVTVSS VL: SYELTQPPSVSVSPGQTARITCSGDNLPKYYAHWYQQKPGQAPVVVIFYDVNRPSGIPERFSGSNSGNTATLTISGTQAMDEADYYCQAWWSSTPVFGGGTKLTVLG | 1 | 1.04 | 1 | 0.0175 | 0.7 | 0.5 | 0.0181
3E10scFv-gA200 (bispecific antibody, human IgG2, lambda, scFv against TF fused on the N-terminus of the heavy chain of anti-TFPI IgG gA200; made in CHO cells; also called 3E10sc-gA200) heavy: QVQLVESGGTLVQPGGSLRLSCAASGFSFTDAWMSWVRQAPGKELEWVSSISGSGGSTYYAGSVKGRFTISRDNSKNTLYLQMNSLRAEDTAVYYCARVLSLTDYYWYGMDVWGQGTLVTVGGGGSGGGGSGGGGSNFMLTQPHSVSASPGKTVTISCTRSSGSVASYYVQWYQQRPGSSPTTVIYEDNHRPSGVPDRFSGSIDTSSNSASLTISGLKTEDEADYYCQSYDSNNLVVFGGGTKLTVLGEGRTATSGGGLVQPGGSLRLSCAASGFTFSSYGMDWVRQAPGKGLEWVSSIRGSRGSTYYADSVKGRFTISRDNSKNTLYLQMNSLRAEDTAVYYCARLYRYWFDYWGQGTLVTVSSASTKGPSVFPLAPCSRSTSESTAALGCLVKDYFPEPVTVSWNSGALTSGVHTFPAVLQSSGLYSLSSVVTVPSSNFGTQTYTCNVDHKPSNTKVDKTVERKCCVECPPCPAPPVAGPSVFLFPPKPKDTLMISRTPEVTCVVVDVSHEDPEVQFNWYVDGVEVHNAKTKPREEQFNSTFRVVSVLTVVHQDWLNGKEYKCKVSNKGLPAPIEKTISKTKGQPREPQVYTLPPSREEMTKNQVSLTCLVKGFYPSDIAVEWESNGQPENNYKTTPPMLDSDGSFFLYSKLTVDKSRWQQGNVFSCSVMHEALHNHYTQKSLSLSPG light: SYELTQPPSVSVSPGQTARITCSGDNLPKYYAHWYQQKPGQAPVVVIFYDVNRPSGIPERFSGSNSGNTATLTISGTQAMDEADYYCQAWWSSTPVFGGGTKLTVLGQPKAAPSVTLFPPSSEELQANKATLVCLISDFYPGAVTVAWKADSSPVKAGVETTTPSKQSNNKYAASSYLSLTPEQWKSHRSYSCQVTHEGSTVEKTVAPTECS | 29.7 | – | – | 0.519 | – | – | –
Ter119scFv-gA200 (bispecific antibody, human IgG2, lambda, scFv against RBC fused on the N-terminus of the heavy chain of anti-TFPI IgG gA200; made in CHO cells; also called Ter119sc-gA200; T119sc-gA200) heavy: QVKLQESGGGLVQPGGSLKLSCVASGFTFRDHWMNWVRQAPGKTMEWIGDIRPDGSDTNYAPSVRNRFTISRDNARSILYLQMSNMRSDYTATYYCVRDSPTRAGLMDAWGQGASVTVLTGGGGSGGGGSGGGGSDIQMIQSPSVLSASVGDRVTLNCKASQNINKYLNWYQQKLGEAPKVLIYNTNNLQTGIPSRFSGSGSGTDFTLTISSLQPEDFATYFCFQHYTWPTFGGGTKLELKEGRTATSGGGLVQPGGSLRLSCAASGFTFSSYGMDWVRQAPGKGLEWVSSIRGSRGSTYYADSVKGRFTISRDNSKNTLYLQMNSLRAEDTAVYYCARLYRYWFDYWGQGTLVTVSSASTKGPSVFPLAPCSRSTSESTAALGCLVKDYFPEPVTVSWNSGALTSGVHTFPAVLQSSGLYSLSSVVTVPSSNFGTQTYTCNVDHKPSNTKVDKTVERKCCVECPPCPAPPVAGPSVFLFPPKPKDTLMISRTPEVTCVVVDVSHEDPEVQFNWYVDGVEVHNAKTKPREEQFNSTFRVVSVLTVVHQDWLNGKEYKCKVSNKGLPAPIEKTISKTKGQPREPQVYTLPPSREEMTKNQVSLTCLVKGFYPSDIAVEWESNGQPENNYKTTPPMLDSDGSFFLYSKLTVDKSRWQQGNVFSCSVMHEALHNHYTQKSLSLSPG light: SYELTQPPSVSVSPGQTARITCSGDNLPKYYAHWYQQKPGQAPVVVIFYDVNRPSGIPERFSGSNSGNTATLTISGTQAMDEADYYCQAWWSSTPVFGGGTKLTVLGQPKAAPSVTLFPPSSEELQANKATLVCLISDFYPGAVTVAWKADSSPVKAGVETTTPSKQSNNKYAASSYLSLTPEQWKSHRSYSCQVTHEGSTVEKTVAPTECS | 14.7 | – | – | 0.256 | – | – | –
